In patent US6207419A, “Thrombin inhibitory agents and methods of using same” (The University of North Carolina at Chapel Hill, priority 1999, dated 2001):

Columns and labels:
[1] = target: T1, plasma purified α-thrombin (Homo sapiens, UniProt P00734); assay: Thrombin inhibition in the presence of glycosaminoglycans (heparin or dermatan sulfate); assay type: biochemical; conditions: heparin at optimal concentration
T1 construct: Human α-thrombin, HCII, and ATIII were purified in our laboratory from plasma; from tissue; host or cells: human plasma (purified in the authors' laboratory)
Experimental: Protease inhibition rates were determined as described previously (Rogers, S. J., Pratt, C. W., Whinna, H. C., and Church, F. C. (1992) J. Biol. Chem. 267(6), 3613-3617; Whinna, H. C., Choi, H. U., Rosenberg, L. C., and Church, F. C. (1993) J. Biol. Chem. 268, 3920-3924; Ciaccia, A. V., Cunningham, E. L., and Church, F. C. (1995) Protein Express. Purific. 6, 806-812; Ciaccia, A. V., Willemze, A. J., and Church, F. C. (1997) J. Biol. Chem. 272(2), 888-893). All assays were performed at room temperature in 96-well microtiter plates previously coated with 2 mg/mL BSA.
In the presence of glycosaminoglycans, 5 nM rHCII (wt, CHis6, CHis5 Pro, L444R, or L444R-CHis6) was incubated with 0.5 nM thrombin and 0-1 mg/mL heparin or 0-4 mg/mL dermatan sulfate or 10 nM rATIII (wt or CHis6) was incubated with 1 nM thrombin or factor Xa and 0-1 mg/mL heparin in the presence of 2 mg/mL BSA in HNPN, pH 7.4.
(§1) Residual thrombin activity was measured with 150 μM GlyProArg-NA and 1 mg/mL pB in the absence of glycosaminoglycan, 2 mg/mL pB in the presence of heparin and 4 mg/mL in the presence of dermatan sulfate. Residual factor Xa activity was measured with 500 μM Spectrozyme FXa and 2mg/mL pB in the presence or absence of glycosaminoglycan. Residual chymotrypsin activity was measured with 150 μM AlaAlaProPhe-NA and residual trypsin activity was measured with 150 μM GlyProArg-NA. Substrate cleavage was measured by color development at 405 nM on a Vmax Kinetic Microplate Reader (Molecular Devices).
Assays were performed at least in triplicate on two or more recombinant protein preparations. All inhibition studies were measured under pseudo-first order conditions where inhibitor [I] is at least ten-fold higher than enzyme (protease) [E], and second-order rate constants were calculated as described previously (Ciaccia, A. V., Cunningham, E. L., and Church, F. C. (1995) Protein Express. Purific. 6, 806-812; Ciaccia, A. V., Willemze, A. J., and Church, F. C. (1997) J. Biol. Chem. 272(2), 888-893).

[2] = Heparin-Sepharose affinity chromatography; assay type: binding; conditions: NaCl gradient, 20 mM Hepes pH 7.4
Experimental: 100 μL of each fraction was aliquoted onto a 96-well microtiter plate and ELISA was performed. The peak elution ionic strength was determined by plotting 405 nm color development and NaCl concentration against the fraction number. All samples were run at least in triplicate using two or more protein preparations. Recombinant ATIII samples were run similarly to the HCII samples, except the elution gradient was run from 50 mM to 2 M NaCl.

[3] = target: T2, α-thrombin (Homo sapiens, UniProt P00734); assay: Effect of hirugen on thrombin inhibition in the absence of glycosaminoglycan; assay type: biochemical
T2 construct: Human α-thrombin, HCII, and ATIII were purified in our laboratory from plasma; from tissue; host or cells: human plasma (purified in the authors' laboratory)
Experimental: as §1, with “GlyProArg-NA.” for “GlyProArg-NA. Substrate cleavage was measured by color development at 405 nM on a Vmax Kinetic Microplate Reader (Molecular Devices).”
Assays were performed at least in triplicate on two or more recombinant protein preparations.

[4] = tested on: thrombin; conditions: cited from earlier work
[5] = target: T1, plasma purified α-thrombin; conditions: value printed with literature reference; cited from earlier work

B1: rHCII-L444R: Recombinant HCII with mutation at the reactive site residue P1 (L444R) (protein, UniProt P05546 20-499, looked up, variant L444R)
Heparin cofactor 2: GSKGPLDQLEKGGETAQSADPQWEQLNNKNLSMPLLPADFHKENTVTNDWIPEGEEDDDYLDLEKIFSEDDDYIDIVDSLSVSPTDSDVSAGNILQLFHGKSRIQRLNILNAKFAFNLYRVLKDQVNTFDNIFIAPVGISTAMGMISLGLKGETHEQVHSILHFKDFVNASSKYEITTIHNLFRKLTHRLFRRNFGYTLRSVNDLYIQKQFPILLDFKTKVREYYFAEAQIADFSDPAFISKTNNHIMKLTKGLIKDALENIDPATQMMILNCIYFKGSWVNKFPVEMTHNHNFRLNEREVVKVSMMQTKGNFLAANDQELDCDILQLEYVGGISMLIVVPHKMSGMKTLEAQLTPRVVERWQKSMTNRTREVLLPKFKLEKNYNLVESLKLMGIRMLFDKNGNMAGISDQRIAIDLFKHQGTITVNEEGTQATTVTTVGFMPRSTQVRFTVDRPFLFLIYEHRTSCLLFMGRVANPSRS
[1]
  maximal rate of thrombin inhibition in the presence of heparin: 1.93±0.38×10^8 M^-1 min^-1
[2]
  Heparin-Sepharose [NaCl], peak elution concentration: 350 mM
[3]; hirugen 20 μM, absence of glycosaminoglycan
  effect of hirugen on thrombin inhibition, in words: less of an effect
[3]; no hirugen, no control peptide, FIG. 5
  rate constant of inhibition (k2) in the absence of peptide: 31200 M⁻¹ s⁻¹
[4]; absence of glycosaminoglycan, earlier publications
  increase of the rate of thrombin inhibition compared to wt-rHCII: ~2 orders of magnitude
[4]; value printed with literature reference
  rate of thrombin inhibition in the absence of glycosaminoglycan: 1.3±0.30×10^6 M^-1 min^-1
[5]
  maximal rate of thrombin inhibition in the presence of dermatan sulfate: 2.84±0.24×10^6 M^-1 min^-1
